# According to the DeepSol protein solubility set:
# Test: soluble on expression in E. coli; label from the status in PepcDB or PDB records
row,Sequence,soluble on expression in E. coli
1,SEEYDTNFYKKLFDAMFVNEDELKEMGKDPKEYMENLLKEAEEKSLKEKMELYKKYNVIEIDSLEDEYQSTAEGYGNLEDVKKFIQKYDINGVYDGYTLLYTYSGYRGETNIIEFLIENNADIYKKSINGKTPLYSAVDDYFYDAAEVILKHYKDNDDINDEFLLAVNNENEPMLRILLKKKFLFFGNKFKMNLDKGLEIALDKGNKDIAAELVLSGAKTDNFLYYFK,not soluble
2,SEFQSTVVATVDCQKQVRSWRLLRSFIQLLIPTCNCTLVQELEQDNTNLRGKKLYNDIKSRTSSFRSSSSLSSSTVTGTIFGYRKGKINFCIQTPRKSTNLDLLLELAVPTTVLAREMREGALRIVLERNNEKQDDDSFLSKPFWNMYCNGKRVGYARKRSPSQDDMTALTALSKVVVGAGVVTGKELGRFDDELMYLRASFRRVNGSKESESFHLIDPAGNIGQELSIFIVPSSV,soluble
3,SEKEKGNDDGIPDQENSLDFSEHFNQLELLETHGHLIPTGTQSLWVGNSDEDEEQDDKNEEWYRLQEKKMEKDPSRLLLWAAEKNRLTTVRRLLSEKATHVNTRDEDEYTPLHRAAYSGHLDIVQELIAQGADVHAVTVDGWTPLHSACKWNNTRVASFLLQHDADINAQTKGLLTPLHLAAGNRDSKDTLELLLMNRYVKPGLKNNLEETAFDIARRTSIYHYLFEIVEGCTNSSPQS,soluble
4,SEKMKLLYVYDPLCGWCYGFGPVVEKIEKNYKGTVDVEIISGGMVMGNRIAPIGNMSEYILDAIPRLQRMTGIEFGQPYITLLKEGSYVTSSEKPSIALCVYKSFTAERAVEYGHAIQTSFYKEGKDLNQDVLYADLATSYGIDRAAFLKRMKDSVYFNQAHEEFKRAAALGVTGFPTLLLKQENGYTALTEGYATYESIEKQLQKHVKAAGTK,not soluble
5,SELLCHEVDPVRRAVRDRNLLRDDRVLQNLLTIEERYLPQCSYFKCVQKDIQPYMRRMVATWMLEVCEEQKCEEEVFPLAMNYLDRFLAGVPTPKSHLQLLGAVCMFLASKLKETSPLTAEKLCIYTDNSIKPQELLEWELVVLGKLKWNLAAVTPHDFIEHILRKLPQQREKLSLIRKHAQTFIALCATDFKFAMYPPSMIATGSVGAAICGLQQDEEVSSLTCDALTELLAKITNTDVDCLKACQEQIEAVLLNSLQQYRQDQRDGSKSEDELDQASTPTDVRDIDL,soluble
6,SENLYFQGSANAVCQRCQARFSPAERIVNSNGELYHEHCFVCAQCFRPFPEGLFYEFEGRKYCEHDFQMLFA,soluble
7,SENVGKKYFMSSVRRMPLNRAKALCSELQGTVATPRNAEENRAIQNVAKDVAFLGITDQRTENVFEDLTGNRVRYTNWNEGEPNNVGSGENCVVLLTNGKWNDVPCSDSFLVVCEFSD,soluble
8,SEVDINGDSRSTLTTLPLPVAEGSSPGKAEAEKPRCSSTPCSPMRRTVSGYQILHMDSNYLVGFTTGEELLKLAQKCTGGEDSKGEAMPALRAKQLDTGLARSSRLYKTRSRYYQPYEIPAVNGRRRRRMPSSGDKCTKPLPYEPYKALHGPLPLCLLKGKRAHSKSLDYLNLDKMNIKEPADTEVLQYQLQHLTLRGDRVFARNNT,not soluble
9,SFHGIPATPGIGAPGNKPELYEEVKLYKNAREREKYDNMAELFAVVKTMQALEKAYIKDCVSPSEYTAACSRLLVQYKAAFRQVQGSEISSIDEFCRKFRLDCPLAMERIKEDRPITIKDDKGNLNRCIADVVSLFITVMDKLRLEIRAMDEIQPDLRELMETMHRMSHLPPDFEGRQTVSQWLQTLSGMSASDELDDSQVRQMLFDLESAYNAFNRFLHA,soluble
10,SGAAGPSSASVKEFQNLVDQHITPFVALSKKLAPEVGNQVEQLVKAIDAEKALINTASQSKKPSQETLLELIKPLNNFAAEVGKIRDSNRSSKFFNNLSAISESIGFLSWVVVEPTPGPHVAEMRGSAEFYTNRILKEFKGVNQDQVDWVSNYVNFLKDLEKYIKQYHTTGLTWNPKGGDAKSATP,soluble
11,SGGCTALVAVSLQGKLYMANAGDSRAILVRRDEIRPLSFEFTPETERQRIQQLAFVYPELLAGEFTRLEFPRRLKGDDLGQKVLFRDHHMSGWSYKRVEKSDLKYPLIHGQGRQARLLGTLAVSRGLGDHQLRVLDTNIQLKPFLLSVPQVTVLDVDQLELQEDDVVVMATDGLWDVLSNEQVAWLVRSFLPGNQEDPHRFSKLAQMLIHSTQGKEDSLTEEGQVSYDDVSVFVIPLHSQGQESSDH,soluble
12,SGLVPGRHMMITMDDIIREGNPTLREVAKEVSLPLSEEDISLGKEMLEFLKNSQDPIKAEELHLRGGVGLAAPQLDISKRIIAVHVPSPDPEADGPSLSTVMYNPKILSHSVQDACLGEGEGCLSVDREVPGYVVRHAKITVSYYDMNGEKHKIRLKNYESIVVQHEIDHINGVMFYDHINDQNPFALKEGVLVIE,soluble
13,SGMEELEQGLLMQPWAWLQLAENSLLAKVFITKQGYALLVSDLQQVWHEQVDTSVVSQRAKELNKRLTAPPAAFLCHLDNLLRPLLKDAAHPSEATFSCDCVADALILRVRSELSGLPFYWNFHCMLASPSLVSQHLIRPLMGMSLALQCQVRELATLLHMKDLEIQDYQESGATLIRDRLKTEPFEENSFLEQFMIEKLPEACSIGDGKPFVMNLQDLYMAVTTQEVQVGQKHQ,soluble
14,SGQKASQQVAPKDSQEVLAMCEVVSAAISHAAQKLKEYLGFEYPLSRLCLAASSLTEVFLVHFVTFCQERGADEWLTTTKMTKHQAWLFGADWIWTFWGPDKEIRLQVAVQTLRMASLPLTDPKSCESRGEESWKKGRFDKLQEFCNLVGEDCLGLFIIFGVPGEPKAIRGVVLESVRNGMMESQLPGRKAVEQFVLETKDCVSIKELLGNCLSKRDGLSDMGRVYIRIL,soluble
15,SGQTALAGGSSSTPTPQALYPDLSCPEGLEELLSAPPPDLGAQRRHGWNPKDCSENIEVKEGGLYFERRPVAQSTDGARGKRGYSRGLHAWEISWPLEQRGTHAVVGVATALAPLQTDHYAALLGSNSESWGWDIGRGKLYHQSKGPGAPQYPAGTQGEQLEVPERLLVVLDMEEGTLGYAIGGTYLGPAFRGLKGRTLYPAVSAVWGQCQVRIRYLGERRAEPHSLLHLSRLCVRHNLGDTRLGQVSALPLPPAMKRYLLYQ,not soluble
16,SIHYTWQNALLDVSERLGVANNSVTLLQQKQANYVRAFADSYDFRTRINQGTPQDELQKWVTEQKKRYSLDFLSFQRVNSMENKFRFMDLTKRESFFDVLNREELEQLDPELAKRAEVPILADGGMEARGLVSRTVIPVYSQANDLIGFLDGGLLLNNSTVLVDQIRDLIYLSDNDRLRPVGTLTVFLDDLRVSTNVPLDSDHRLGRAIGTRVSAEVYNQVLSKGQQWVDRAYVYDAWYITAYQPIKDQYDNVIGMLYTGYLMWPFVKAYMTNIAE,not soluble
17,SIIPSLEELDSLKYSDLQNLAKSLGLRANLRATKLLKALKGYIKHEARKGNENQDESQTSASSCDETEIQISNQEEAERQPLGHVTKTRRRCKTVRVDPDSQQNHSEIKISNPTEFQNHEKQESQDLRATAKVPSPPDEHQEAENAVSSGNRDSKVPSEGKKSLYTDESSKPGKNKRTAITTPNFKKLHEAHFKEMESIDQYIERKKKHFEEHNSMNELKQPINKGGVRTPVPPRGRLSVASTPISQRRSQGRSCGPASQSTLGLKGSLKRSAISAAKTGVRFSAATKDNEHKRSLTKTPARKSAHVTVSGGTPKGEAVLGTHKLKTITGNSAAVITPFKLTTEATQTPVSNKKPVFDLKASLSRPLNYEPHKGKLKPWGQSKENNYLNQHVNRINFYKKTYKQPHLQTKEEQRKKREQERKEKKAKVLGMRRGLILAED,not soluble
18,SIKDVHRCFVIACIPGKKPYTLALSDFISATAACFKSGIPLKTLKESLENMKETYFRPLKVEEFELLRTWLTLVYKTLKEVLFPLTENKRGICDTDDSIYDEFVKSIVTAIREGYSMEKIRLEQVVTNTKTQPRTEFESALLSQSTRIVVQTVQIAKEFSSEQ,soluble
19,SILATPILIPENQRPPFPRSVGKVIRSEGTEGAKFRLSGKGVDQDPKGIFRINEISGDVSVTRPLDREAIANYQLEVEVTDLSGKIIDGPVRLDISVIDQNDNRPMFKEGPYVGHVMEGSPTGTTVMRMTAFDADDPSTDNALLRYNILKQTPTKPSPNMFYIDPEKGDIVTVVSPVLLDRETMETPKYELVIEAKDMGGHDVGLTGTATATILIDD,soluble
20,SIRLPAHLRLQPIYWSRDDVAQWLKWAENEFSLSPIDSNTFEMNGKALLLLTKEDFRYRSPHSGDVLYELLQHILKQRDLEAEAAAAEAAAKA,soluble
21,SKGWGWLALLLGVLLGTAWARRSQDLHCGACRALVDELEWEIARVDPKKTIQMGSFRINPDGSQSVVEVPYARSEAHLTELLEEVCDRMKEYGEQIDPSTHRKNYVRVVSRNGESSELDLQGIRIDSDISGTLKFACESIVEEYEDELIEFFSREADNVKDKLCSKRTDLCDHALHRSHDEL,soluble
22,SKKVIGKKRAHAEDDELDPMDPSSYSDAPRGGWVVGLKGVQPRAADTTASGPLFQQRPYPSPGAVLRRNAEVASSQKKKPNSQFTEITKRGDGSDGLGDAD,soluble
23,SKKVYAFDVQEQALGKTSQRLSDLGIENTELILDGHENLDHYVREPIRAAIFNLGYLPSADKSVITKPHTTLEAIEKILDRLEVGGRLAIMIYYGHDGGDMEKDAVLEYVIGLDQRVFTAMLYQPLNQINTPPFLVMLEKLQ,not soluble
24,SLAATGNASKPSLNSFYADGLGQLRNGLFSCFQPVFGYFGTKTTVEIEKSEDELWEIPFDAISELEWLGSGSQGAVFRGQLENRTVAVKKVNQLKETEIKHLRHLRHQNIIEFLGVCSKSPCYCIVMEYCSKGQLCTVLKSRNTITRELFAQWVKEIADGMHYLHQNKVIHRDLKSPNILISAEDSIKICDFGTSHMQKKMDSTMMSFCGTVSWMAPEMIKKQPCNEKVDVYSFGVVLWEMLTRETPYANIAQMAIIFGVGTNILSLPMPEEAPKGLVLLIKQCLSQKGRNRPSFSHIRQHWEIFKPELFEMTEEEWQLAWDSYREFAKCIQYPSTVTRDHGGPKSAFAMEEEIQRKRHEQLNHIKDIRNMYEMKLKRTNKMYDKLQGCFTELKLKESELAEWEKDLTER,soluble
25,SLAPPAPPVSYGVEEDVFHPVRAKQGMVASVDATATQVGVDILKEGGNAVDAAVAVGYALAVTHPQAGNLGGGGFMLIRSKNGNTTAIDFREMAPAKATRDMFLDDQGNPDSKKSLTSHLASGTPGTVAGFSLALDKYGTMPLNKVVQPAFKLARDGFIVNDALADDLKTYGSEVLPNHENSKAIFWKEGEPLKKGDTLVQANLAKSLEMIAENGPDEFYKGTIAEQIAQEMQKNGGLITKEDLAAYKAVERTPISGDYRGYQVYSMPPPSSGGIHIVQILNILENFDMKKYGFGSADAMQIMAEAEKYAYADRSEYLGDPDFVKVPWQALTNKAYAKSIADQIDINKAKPSSEIRPGKLAPYESNQTTHYSVVDKDGNAVAVTYTLNTTFGTGIVAGESGILLNNQMDDFSAKPGVPNVYGLVGGDANAVGPNKRPLSSMSPTIVVKDGKTWLVTGSPGGSRIITTVLQMVVNSIDYGLNVAEATNAPRFHHQWLPDELRVEKGFSPDTLKLLEAKGQKVALKEAMGSTQSIMVGPDGELYGASDPRSVDDLTAGY,soluble
26,SLAQTQLIQSEKMSSLGQLIAGVAHEINNPVNFIYGNLRYVAEYAQDLLHLLEKYQKFLPVTPPELESELDNIDLEFIIQDLPKLLDSMKLGTGRIVEIVQSLKNFSRHDEAEMKAVNIHDGIDGTLMILHHRLKAAIRRPKIEIVKDYAKLPLIECYPGKLNQVFMNILANAIDALEEGMGNEEIPPPTGQITIRTEVLDNQWVVIRIADNGPGMKEEVIRRIYDPFFTTKDVGKGTGLGMAISYQIVVDKHGGMLKCRSQPGEGTEFWIQIPVNCALADAAEEG,not soluble
